# In US20250341522A1, “Treatment Strategies for Pancreatic Cancer Using Recombinant Acid Sphingomyelinase” (University of Cincinnati, priority 2024, published 2025):
# “And” between values parts separate entries of the source, which are not always exact repeats. Equal values may be shown once. Read-outs that look alike come from different tables or passages of the source.
# B1: recombinant ASM: recombinant acid sphingomyelinase (EC 3.1.4.12, SMPD1), a lysosomal hydrolase glycoprotein degrading sphingomyelin to phosphorylcholine and ceramide (protein, UniProt P17405 47-631, looked up)
# Sphingomyelin …: LALSDSRVLWAPAEAHPLSPQGHPARLHRIVPRLRDVFGWGNLTCPICKGLFTAINLGLKKEPNVARVGSVAIKLCNLLKIAPPAVCQSIVHLFEDDMVEVWRRSVLSPSEACGLLLGSTCGHWDIFSSWNISLPTVPKPPPKPPSPPAPGAPVSRILFLTDLHWDHDYLEGTDPDCADPLCCRRGSGLPPASRPGAGYWGEYSKCDLPLRTLESLLSGLGPAGPFDMVYWTGDIPAHDVWHQTRQDQLRALTTVTALVRKFLGPVPVYPAVGNHESTPVNSFPPPFIEGNHSSRWLYEAMAKAWEPWLPAEALRTLRIGGFYALSPYPGLRLISLNMNFCSRENFWLLINSTDPAGQLQWLVGELQAAEDRGDKVHIIGHIPPGHCLKSWSWNYYRIVARYENTLAAQFFGHTHVDEFEVFYDEETLSRPLAVAFLAPSATTYIGLNPGYRVYQIDGNYSGSSHVVLDHETYILNLTQANIPGAIPHWQLLYRARETYGLPNTLPTAWHNLVYRMRGDMQLFQTFWFLYHKGHPPSEPCGTPCRLATLCAQLSARADSPALCRHLMPDGSLPEAQSLWPRPLFC
# Experiments:
# [1] = cited from earlier work
# KPC cells = test: Tumor growth in wt mice after peritoneal injection of KPC cells, gemcitabine plus recombinant ASM (Example 10, FIG. 11); type: in vivo; conditions: 0.75 mg/kg i.v. twice daily, 2 treatment cycles of 4 days each, in combination with gemcitabine; KPC tumor-injected wt mice
# Description: FIG. 11 is a graph showing the results of wt mice that were treated with gemcitabine alone, gemcitabine plus recombinant ASM, or vehicle control after peritoneal injection of KPC cells. Recombinant ASM was administered twice daily at 0.75 mg/kg i.v. for two treatment cycles of 4 days each.
# Since PDAC growth in ASM-tr mice. we determined the therapeutic potential of exogenous administration of recombinant ASM. We administered 0.75 mg/kg recombinant ASM i.v. twice daily to tumor-injected mice for 2 treatment cycles of 4 days each in combination with the standard treatment, i.e. gemcitabine. […] However, because the half-life of recombinant ASM is only 2 h, these studies must be repeated with continuous infusion of ASM.
# Wt mice were treated with gemcitabine alone (“Group 1”), gemcitabine plus recombinant ASM (“Group 2”) or vehicle control after peritoneal injection of KPC cells (“Group 3”). Recombinant ASM was administered twice daily 0.75 mg/kg i.v. for two treatment cycles of 4 days each.
# [2] = in humans; cited from earlier work
# KPC tumor cells = test: Survival after i.p. injection of KPC tumor cells (Example 11); type: in vivo, mice; conditions: 50 000 KPC tumor cells i.p., rec. ASM i.p. twice daily for 2 weeks, starting 2 days after tumor injection; for Survival of individual subjects: anti-PD1 every 2nd day i.p. 250 μg/25 g where combined
# Description: Group 1: 50 000 KPC tumor cells were i.p. injected and tumor development was determined. For this group, the subjects survived, respectively, for 27, 28, 28, 29, 30, and 31 days.
# Group 2: Survival time was collected for subjects upon application of recombinant acid sphingomyelinase (i.p., twice daily, for 2 weeks, starting 2 days after tumor injection). For this group, the subjects survived, respectively, for 48, 55, 57, 60, 62, 65 and 70 days. The acid sphingomyelinase was injected for a longer time and i.p. in these experiments than in FIG. 11.
# Group 3: Survival time was collected for subjects upon application of recombinant acid sphingomyelinase (i.p., twice daily, for 2 weeks, starting 2 days after tumor injection)+application of anti-PD1 antibodies (every 2nd day i.p., 250 μg/25 g). For this group, the subjects survived, respectively, for 75, 80, 85, 87, 90, 93 and 96 days. The half-life time of acid sphingomyelinase is rather short in mice (2 hrs, but much longer in humans with 2 weeks). Thus, the i.p. injection are not very sufficient and must be replaced by continuous infusion, which may allow complete elimination of the tumors.
# PD1 on CD3 lymphocytes = test: PD1 surface expression on CD3 lymphocytes by flow cytometry in KPC tumor mice (Example 12); type: in vivo; conditions: wildtype mice, KPC-PDAC (50 000 cells i.p.), 21 days; rec. ASM for 2 days with 4 i.p. injections/day; individual mice
# Description: FIG. 12 is a graph showing the PDI expression on lymphocytes of tumor mice upon treatment with recombinant acid sphingomyelinase or solvent.
# The PD1 expression on lymphocytes with/without treatment with recombinant acid sphingomyelinase was determined. The surface expression of PD1 on CD3 lymphocytes was determined by flow cytometry upon staining with FITC-anti-PD1 and APC-anti-CD3 antibodies, expressed as mean fluorescence in a.u. of PD1 in the CD3-positive cell population. Mice were i.p. injected with 50 000 KPC tumor cells, left for 21 days untreated or treated with recombinant acid sphingomyelinase for 2 days with 4 i.p. injections/day.
molecule,measurement,setting,value
B1,half-life time of acid sphingomyelinase,[1]; in mice,2 h
same,half-life of recombinant ASM,[1]; stated in mouse study of Example 10,2 h
same,tumor growth,KPC cells,delayed tumor growth
same,half-life time of acid sphingomyelinase,[2],2 weeks
same,Survival of individual subjects,KPC tumor cells,48 days and 55 days and 57 days and 60 days and 62 days and 65 days and 70 days
same,Survival of individual subjects,KPC tumor cells; listed as Rec. ASM alone,48 days and 55 days and 57 days and 60 days and 62 days and 65 days and 70 days
same,Avg. Survival,KPC tumor cells; anti-PD1 every 2nd day i.p. where combined,59.6 days
same,"Surface expression of PD1 on CD3 lymphocytes, mean fluorescence of PD1 in the CD3-positive cell population",PD1 on CD3 lymphocytes,138 a.u. and 129 a.u. and 125 a.u. and 118 a.u. and 131 a.u. and 115 a.u. and 141 a.u.
